Experimental data published in the supplement of paper PMC10567573.

B1: CDC14A (parent)
chain: LNLAMVYRYCCKLNKKLKSYSLSR
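Further: lentivirally expressed fusions sorted by FACS into six bins by GFP to DsRed ratio, PSI derived from sequencing read proportions per bin multiplied by bin number.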

Variants of: B1
Assay: protein stability index of a GFP-peptide fusion (GPS, HEK-293T) (PSI 1-6); higher = more stable
Conditions: c terminus: a fixed tail appended
Variant LNLAMVYRYCCKLNKKLKSQSLSR has a protein stability index of 3.1.
For LNLAMVYRYCCKLNKKLKSISLSR, the protein stability index was 3.15.
LNLAMVYRYCCKLNKKLKSASLSR showed a protein stability index of 2.61.
LNLAMVYRYCCKLNKKLKSKSLSR showed a protein stability index of 3.24.
LNLAMVYRYCCKLNKKLKSDSLSR gave a protein stability index of 3.34.
LNLAMVYRYCCKLNKKLKSPSLSR showed a protein stability index of 4.23.
With LNLAMVYRYCCKLNKKLKSYSLTR the protein stability index was 3.09.
LNLAMVYRYCCKLNKKLKSYSLVR showed a protein stability index of 2.77.
Work on LNLAMVYRYCCKLNKKLKSYSLCR yielded a protein stability index of 2.49.
LNLAMVYRYCCKLNKKLKSYSLIR gave a protein stability index of 3.46.
In the case of LNLAMVYRYCCKLNKKLKSYSLQR, the protein stability index is reported as 2.53.
In the case of LNLAMVYRYCCKLNKKLKSYSLKR, the protein stability index is reported as 3.42.
With LNLAMVYRYCCKLNKKLKSYSLYR the protein stability index was 2.97.
Work on LNLAMVYRYCCKLNKKLKSYSLHR yielded a protein stability index of 2.36.
For LNQAMVYRYCCKLNKKLKSYSLSR, the protein stability index was 2.61.
Variant LNVAMVYRYCCKLNKKLKSYSLSR has a protein stability index of 2.59.
LNSAMVYRYCCKLNKKLKSYSLSR showed a protein stability index of 2.2.
LNNAMVYRYCCKLNKKLKSYSLSR gave a protein stability index of 1.89.
In the case of LNGAMVYRYCCKLNKKLKSYSLSR, the protein stability index is reported as 4.11.
For LNTAMVYRYCCKLNKKLKSYSLSR, the protein stability index was 2.79.
In the case of LNKAMVYRYCCKLNKKLKSYSLSR, the protein stability index is reported as 3.48.
LNRAMVYRYCCKLNKKLKSYSLSR showed a protein stability index of 2.17.
In the case of LNLCMVYRYCCKLNKKLKSYSLSR, the protein stability index is reported as 3.81.
With LNLQMVYRYCCKLNKKLKSYSLSR the protein stability index was 4.07.
LNLMMVYRYCCKLNKKLKSYSLSR showed a protein stability index of 3.12.
Variant LNLLMVYRYCCKLNKKLKSYSLSR has a protein stability index of 2.68.
Variant LNLFMVYRYCCKLNKKLKSYSLSR has a protein stability index of 3.74.
LNLKMVYRYCCKLNKKLKSYSLSR showed a protein stability index of 1.59.
For LNLPMVYRYCCKLNKKLKSYSLSR, the protein stability index was 3.19.
Work on LNLGMVYRYCCKLNKKLKSYSLSR yielded a protein stability index of 3.33.
LNLHMVYRYCCKLNKKLKSYSLSR showed a protein stability index of 3.55.
LNLDMVYRYCCKLNKKLKSYSLSR showed a protein stability index of 4.12.
LNLWMVYRYCCKLNKKLKSYSLSR showed a protein stability index of 1.8.
With LNLAMVYRYCCKLNKKLKSYSESR the protein stability index was 1.85.
With LNLAMVYRYCCKLNKKLKSYSVSR the protein stability index was 1.04.
Work on LNLAMVYRYCCKLNKKLKSYSWSR yielded a protein stability index of 2.76.
Variant LNLAMVYRYCCKLNKKLKSYSASR has a protein stability index of 4.08.
LNLAMVYRYCCKLNKKLKSYSGSR gave a protein stability index of 3.46.
For LNLAMVYRYCCKLNKKLKSYSKSR, the protein stability index was 2.39.
In the case of LNLAMVYRYCCKLNKKLKSYSPSR, the protein stability index is reported as 2.24.
In the case of LNLAMVYRYCCKLNKKLKSYSNSR, the protein stability index is reported as 1.75.
For LNLAMVYRYCCKLNKKLKSYSDSR, the protein stability index was 2.2.
Work on LNLAMVYRYCCKLNKKLKSYSHSR yielded a protein stability index of 3.37.
LNLAMVYRYCCKLNKKLKSYSSSR showed a protein stability index of 3.58.
For LNLAMVYRYCCKLTKKLKSYSLSR, the protein stability index was 3.41.
For LNLAMVYRYCCKLCKKLKSYSLSR, the protein stability index was 3.38.
With LNLAMVYRYCCKLHKKLKSYSLSR the protein stability index was 3.21.
Variant LNLAMVYRYCCKLMKKLKSYSLSR has a protein stability index of 1.94.
For LNLAMVYRYCCKLFKKLKSYSLSR, the protein stability index was 2.31.
Variant LNLAMVYRYCCKLSKKLKSYSLSR has a protein stability index of 2.35.
Work on LNLAMVYRYCCKLKKKLKSYSLSR yielded a protein stability index of 3.38.
With LNLAMVYRYCCKLEKKLKSYSLSR the protein stability index was 4.6.
LNLAMVYRYCCKLVKKLKSYSLSR gave a protein stability index of 1.78.
In the case of LNLAMVYRYCCKLNKKLASYSLSR, the protein stability index is reported as 2.11.
Work on LNLAMVYRYCCKLNKKLTSYSLSR yielded a protein stability index of 3.6.
LNLAMVYRYCCKLNKKLMSYSLSR gave a protein stability index of 3.72.
For LNLAMVYRYCCKLNKKLHSYSLSR, the protein stability index was 2.96.
Variant LNLAMVYRYCCKLNKKLDSYSLSR has a protein stability index of 2.42.
Variant LNLAMVYRYCCKLNKKLISYSLSR has a protein stability index of 2.79.
LNLAMVYRYCCKLNKKLNSYSLSR gave a protein stability index of 2.77.
LNLAMVYRYCCKLNKKLQSYSLSR gave a protein stability index of 1.97.
LNLAMVYRYCCKLNKKLSSYSLSR showed a protein stability index of 2.9.
For LNLAMVYRYCCKLNKKLYSYSLSR, the protein stability index was 2.67.
Work on LNLAMVYRYCCHLNKKLKSYSLSR yielded a protein stability index of 1.73.
In the case of LNLAMVYRYCCLLNKKLKSYSLSR, the protein stability index is reported as 2.5.
In the case of LNLAMVYRYCCNLNKKLKSYSLSR, the protein stability index is reported as 2.15.
For LNLAMVYRYCCRLNKKLKSYSLSR, the protein stability index was 2.13.
LNLAMVYRYCCALNKKLKSYSLSR showed a protein stability index of 2.1.
For LNLAMVYRYCCKLNKKLKSYSLSH, the protein stability index was 2.69.
Work on LNLAMVYRYCCKLNKKLKSYSLST yielded a protein stability index of 1.99.
In the case of LNLAMVYRYCCKLNKKLKSYSLSV, the protein stability index is reported as 3.52.
Work on LNLAMVYRYCCKLNKKLKSYSLSI yielded a protein stability index of 3.79.
With LNLAMVYRYCCKLNKKLKSYSLSE the protein stability index was 2.72.
Variant LNLAMVYRYCCKLNKKLKSYSLSF has a protein stability index of 2.97.
For LNLAMVYRQCCKLNKKLKSYSLSR, the protein stability index was 3.9.
With LNLAMVYRACCKLNKKLKSYSLSR the protein stability index was 2.3.
In the case of LNLAMVYRPCCKLNKKLKSYSLSR, the protein stability index is reported as 1.41.
In the case of LNLAMVYRICCKLNKKLKSYSLSR, the protein stability index is reported as 2.02.
In the case of LNLAMVYRGCCKLNKKLKSYSLSR, the protein stability index is reported as 3.25.
Variant LNLAMVYRVCCKLNKKLKSYSLSR has a protein stability index of 2.44.
Work on LNLAMVYRMCCKLNKKLKSYSLSR yielded a protein stability index of 1.81.
For LNLAMVYRECCKLNKKLKSYSLSR, the protein stability index was 2.45.
With LNLAMVYRKCCKLNKKLKSYSLSR the protein stability index was 3.54.
In the case of LNLAMVYRYCCKLNKKFKSYSLSR, the protein stability index is reported as 2.64.
With LNLAMVYRYCCKLNKKMKSYSLSR the protein stability index was 3.07.
Work on LNLAMVYRYCCKLNKKPKSYSLSR yielded a protein stability index of 3.05.
Work on LNLAMVYRYCCKLNKKHKSYSLSR yielded a protein stability index of 2.21.
Variant LNLAMVYRYCCKLNKKKKSYSLSR has a protein stability index of 2.24.
For LNLAMVYRYCCKLNKKNKSYSLSR, the protein stability index was 2.54.
In the case of LNLAMVYRYCCKLNKKTKSYSLSR, the protein stability index is reported as 2.08.
Variant LNLAMVYRYCCKLNKKSKSYSLSR has a protein stability index of 2.17.
Variant LNLAYVYRYCCKLNKKLKSYSLSR has a protein stability index of 3.21.
LNLALVYRYCCKLNKKLKSYSLSR showed a protein stability index of 2.57.
Work on LNLATVYRYCCKLNKKLKSYSLSR yielded a protein stability index of 3.46.
